Measurements from US20230272011A1 (AVACTA LIFE SCIENCES, published 2023).

Assays:
[1] = molecular target: human PD-L1 (PD-1/PD-L1 blockade Bioassay, Promega) (human, UniProt Q9NZQ7 19-290, limits assumed); experiment: cell-based or functional assay
[2] = molecular target: T1, human PD-L1-Fc (R&D Systems) chimeric protein (human, UniProt Q9NZQ7 19-239); experiment: Biacore single cycle kinetics on human PD-L1 Fc
T1 construct: Bought reagent; also called rhPD-L1-Fc; huPD-L1; Fc part of the bought chimera not given, not described

[3] = molecular target: T1, human PD-L1-Fc (R&D Systems) chimeric …; experiment: binding ELISA on coated human PD-L1-Fc (table on the sheet is headed 'IC50 (nM)'; the text calls these values EC50)
Protocol: Briefly, human PD-L1-Fc (R&D Systems) chimeric protein was coated on 96 well plates at […] in carbonate buffer. After saturation with 5% casein/PBS buffer, the plates were washed and a dilution of AFFIMER® polypeptides or controls were incubated for 90 minutes. Plates were then washed and a biotinylated polyclonal antibody anti-cystatin A (R&D Systems) was added for 1 hour. Plates were washed and AFFIMER® polypeptides were detected using streptavidin-HRP. After a last washing step, TMB was added for the development of the experiment and plates were read at 450 nm.

[4] = molecular target: T2, human serum albumin (human, UniProt P02768 25-609); experiment: SPR (Biacore), immobilised HSA, Affimer analyte
T2 construct: mature; Bought protein; biotinylated in the Octet and HTRF assays; also called HSA; HuSA
Protocol: Affinities for mouse, human, and cynomolgus serum were also measured at pH 7.4 for four (4) AFFIMER® binders using surface plasmon resonance (SPR) (FIG. 5, Table 5). […] A concentration titration of AFFIMER® monomers was run as analyte at a flow rate of 30 μl/min or 60 μl/min. Fc2-1, Fc3-1 and Fc4-1 kinetic data was blank subtracted and fit to a 1:1 Langmuir binding model (BIAcore Evalution software; GE) to calculate KD values. […]

[5] = molecular target: T2, human serum albumin; experiment: binding ELISA on coated HSA, pH 7.4
Protocol: After saturation with 5% PBS Casein pH 7.5, plates were washed and a dilution of AFFIMER® polypeptides or controls were incubated for 90 minutes. Plates were then washed, and a biotinylated polyclonal antibody anti-cystatin A (R&D Systems) was added for 1 hour. Plates were washed and AFFIMER® polypeptides were detected using streptavidin-HRP. After a last washing step, TMB was added for the development of the experiment and the plates were read at 450 nm.

[6] = molecular target: T1, human PD-L1-Fc (R&D Systems) chimeric …; experiment: SPR (Biacore), immobilised rhPD-L1-Fc, Affimer analyte
Protocol: ILF dimer production from E. coli was performed as described in Example 3. Briefly, protein was purified using three stages: affinity capture, IEX, and preparative SEC. […] To analyze PD-L1-Fc binding kinetics, a Biacore T200 kinetic analysis was performed using running buffer HBS-EP+ and series S sensor CM5 (GE Healthcare) chip Fc2 immobilized with PD-L1-Fc (R&D Systems) in 10 mM sodium acetate pH 4.0 using amine coupling reagents (GE Healthcare). The concentration titration of ILF AFFIMER® polypeptides was run as analyte at a flow rate of 30 μl/min. […] with 3 mM NaOH (GE healthcare) for 20 seconds at 20 μl/min flow rate. The Fc2-1 data blank was subtracted and fit to a 1:1 Langmuir binding model (Biacore evaluation software; GE) to calculate an apparent KD value.
ILF production in E. coli was performed as described in Example 3 using protein purified using affinity capture, IEX, and preparative SEC. Protein purity was assessed using SDS-PAGE and SEC-HPLC.

T1 sequence (Q9NZQ7 19-239, change not shown): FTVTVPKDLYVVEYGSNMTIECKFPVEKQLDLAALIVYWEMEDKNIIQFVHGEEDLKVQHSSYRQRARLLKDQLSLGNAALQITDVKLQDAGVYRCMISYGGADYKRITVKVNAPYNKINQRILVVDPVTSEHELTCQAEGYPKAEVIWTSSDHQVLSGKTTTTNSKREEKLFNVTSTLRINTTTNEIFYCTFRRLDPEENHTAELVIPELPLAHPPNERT
Chain of human PD-L1 (PD-1/PD-L1 blockade Bioassay, Promega) (Q9NZQ7 19-290 limits assumed): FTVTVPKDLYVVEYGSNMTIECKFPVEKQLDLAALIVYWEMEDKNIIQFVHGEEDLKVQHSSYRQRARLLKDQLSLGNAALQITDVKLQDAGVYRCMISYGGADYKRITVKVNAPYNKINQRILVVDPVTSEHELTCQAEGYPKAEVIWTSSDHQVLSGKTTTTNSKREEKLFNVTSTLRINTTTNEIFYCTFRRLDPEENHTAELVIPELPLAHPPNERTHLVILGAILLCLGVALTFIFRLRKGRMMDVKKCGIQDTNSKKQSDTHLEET

IC50 as headed on the sheet (EC50); PD-1/PD-L1 blockade Bioassay (Promega), fold change relative to assay buffer [1] [nM] | Kd [2] [nM] | koff [2] [s⁻¹] | kon [2] [M⁻¹ s⁻¹] | EC50 [3] [nM] | Kd [4] [nM] | koff [4] [s⁻¹] | kon [4] [M⁻¹ s⁻¹] | EC50 [5] [nM] | Kd [6] [nM] | koff [6] [s⁻¹] | kon [6] [M⁻¹ s⁻¹] | Binder
176 | 0.307 | 0.000277 | 903000 | 0.033 | 8.75 | 0.00282 | 322000 | 0.062 | 0.504 | 0.00042 | 834000 | AVA04-251 XT14 (designed binder) MIPRGLSEAKPATPEIQEIVDKVKPQLEEKTNETYGKLEAVQYKTQVLAREGRQDWVLSTNYYIKVRAGDNKYMHLKVFNGPWVPFPHQQLADRVLTGYQVDKNKDDELTGFAEAAAKEAAAKEAAAKEAAAKEAAAKEAAAKMIPRGLSEAKPATPEIQEIVDKVKPQLEEKTNETYGKLEAVQYKTQVLAREGRQDWVLSTNYYIKVRAGDNKYMHLKVFNGPWVPFPHQQLADRVLTGYQVDKNKDDELTGFAEAAAKEAAAKEAAAKEAAAKEAAAKEAAAKMIPRGLSEAKPATPEIQEIVDKVKPQLEEKTNETYGKLEAVQYKTQVLANFFQRRWPGSTNYYIKVRAGDNKYMHLKVFNGPWKFRNTDRGADRVLTGYQVDKNKDDELTGFHHHHHH
434 |  |  |  | 0.064 | 5.2 | 0.0029 | 557000 | 0.039 | 0.704 | 0.000607 | 863000 | AVA04-251 XT15 (designed binder) MIPRGLSEAKPATPEIQEIVDKVKPQLEEKTNETYGKLEAVQYKTQVLAREGRQDWVLSTNYYIKVRAGDNKYMHLKVFNGPWVPFPHQQLADRVLTGYQVDKNKDDELTGFAEAAAKEAAAKEAAAKEAAAKEAAAKEAAAKMIPRGLSEAKPATPEIQEIVDKVKPQLEEKTNETYGKLEAVQYKTQVLANFFQRRWPGSTNYYIKVRAGDNKYMHLKVFNGPWKFRNTDRGADRVLTGYQVDKNKDDELTGFAEAAAKEAAAKEAAAKEAAAKEAAAKEAAAKMIPRGLSEAKPATPEIQEIVDKVKPQLEEKTNETYGKLEAVQYKTQVLAREGRQDWVLSTNYYIKVRAGDNKYMHLKVFNGPWVPFPHQQLADRVLTGYQVDKNKDDELTGFHHHHHH
893 |  |  |  | 0.03 |  |  |  |  | 1.71 | 0.00129 | 752000 | AVA04-251 BH (designed binder, also called anti-PD-L1 parental ILF dimer molecule) MIPRGLSEAKPATPEIQEIVDKVKPQLEEKTNETYGKLEAVQYKTQVLAREGRQDWVLSTNYYIKVRAGDNKYMHLKVFNGPWVPFPHQQLADRVLTGYQVDKNKDDELTGFAEAAAKEAAAKEAAAKEAAAKEAAAKEAAAKMIPRGLSEAKPATPEIQEIVDKVKPQLEEKTNETYGKLEAVQYKTQVLAREGRQDWVLSTNYYIKVRAGDNKYMHLKVFNGPWVPFPHQQLADRVLTGYQVDKNKDDELTGFHHHHHH
